This note sets out measurements from IntAct's records for PubMed 19966800.

The target in this assay is caga_helpy cagA (UniProt P55980).
Sequence of caga_helpy cagA (P55980 whole entry): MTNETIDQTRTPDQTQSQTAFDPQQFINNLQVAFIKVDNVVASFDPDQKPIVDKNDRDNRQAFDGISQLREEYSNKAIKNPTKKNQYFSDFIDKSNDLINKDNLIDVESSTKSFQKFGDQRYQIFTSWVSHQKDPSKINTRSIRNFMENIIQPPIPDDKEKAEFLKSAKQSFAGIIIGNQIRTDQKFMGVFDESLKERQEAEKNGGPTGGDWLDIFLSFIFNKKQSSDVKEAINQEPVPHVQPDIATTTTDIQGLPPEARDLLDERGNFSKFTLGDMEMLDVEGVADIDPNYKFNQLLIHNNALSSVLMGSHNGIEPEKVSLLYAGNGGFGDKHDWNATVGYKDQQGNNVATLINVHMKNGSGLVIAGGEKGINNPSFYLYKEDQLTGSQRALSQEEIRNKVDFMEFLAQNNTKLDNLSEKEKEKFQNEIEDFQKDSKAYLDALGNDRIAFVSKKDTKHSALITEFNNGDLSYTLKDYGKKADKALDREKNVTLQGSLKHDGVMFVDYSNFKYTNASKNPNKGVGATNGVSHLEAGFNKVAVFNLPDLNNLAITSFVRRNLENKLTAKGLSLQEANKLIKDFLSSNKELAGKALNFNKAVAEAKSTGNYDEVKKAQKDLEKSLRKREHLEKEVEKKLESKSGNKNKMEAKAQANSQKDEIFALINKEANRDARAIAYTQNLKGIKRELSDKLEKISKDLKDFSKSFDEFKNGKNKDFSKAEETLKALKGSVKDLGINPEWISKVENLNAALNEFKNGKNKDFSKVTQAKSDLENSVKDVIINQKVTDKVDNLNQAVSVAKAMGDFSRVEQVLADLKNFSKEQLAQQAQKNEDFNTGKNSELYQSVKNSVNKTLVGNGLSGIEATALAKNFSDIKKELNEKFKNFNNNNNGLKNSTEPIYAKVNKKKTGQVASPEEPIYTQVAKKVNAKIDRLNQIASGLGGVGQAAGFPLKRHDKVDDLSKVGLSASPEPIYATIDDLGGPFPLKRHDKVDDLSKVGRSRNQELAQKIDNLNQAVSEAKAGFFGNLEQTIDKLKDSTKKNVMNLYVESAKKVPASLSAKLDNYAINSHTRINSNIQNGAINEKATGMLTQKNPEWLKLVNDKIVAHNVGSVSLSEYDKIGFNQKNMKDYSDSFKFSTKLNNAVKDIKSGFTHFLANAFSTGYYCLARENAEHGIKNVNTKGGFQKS

Regarding “Serine/threonine-protein kinase MARK2 (Homo sapiens), Q7KZI7 E136G;F138G;D139G”, the “effect of a mutation on the interaction” value is recorded as “disrupting interaction”.
